Km of casein proteolysis (substrate–velocity curve, UV absorbance data for one substance are collected here from article PMC12101266.

Read-outs that look alike come from different tables or passages of the source.

Test [1] concerns the target casein.
The target in test [2] is casein. This is another data set of the same source.

Turning to “purified S. trilobatum serine protease (StSP) (enzyme)”, the Km of casein proteolysis (substrate–velocity curve, UV absorbance at 280 nm, casein 7–80 µM, 37 °C, 50 mM Tris pH 7.8) in the test with casein [1] stood at 14.6 µM; with casein [2], 14.1 µM/min.
